{"source": "patent US20260275312", "about": "“CRISPR NUCLEASE POLYPEPTIDES AND GENE EDITING SYSTEMS COMPRISING SUCH” (ARBOR BIOTECHNOLOGIES, INC., published 2026)", "details_in_all_cases": "tags: N-term SV40 NLS, XTEN linker + C-term nucleoplasmin NLS", "key": {"[1]": {"molecular_target": "T1, Nuclease S (synthetic construct)", "T1 chain": "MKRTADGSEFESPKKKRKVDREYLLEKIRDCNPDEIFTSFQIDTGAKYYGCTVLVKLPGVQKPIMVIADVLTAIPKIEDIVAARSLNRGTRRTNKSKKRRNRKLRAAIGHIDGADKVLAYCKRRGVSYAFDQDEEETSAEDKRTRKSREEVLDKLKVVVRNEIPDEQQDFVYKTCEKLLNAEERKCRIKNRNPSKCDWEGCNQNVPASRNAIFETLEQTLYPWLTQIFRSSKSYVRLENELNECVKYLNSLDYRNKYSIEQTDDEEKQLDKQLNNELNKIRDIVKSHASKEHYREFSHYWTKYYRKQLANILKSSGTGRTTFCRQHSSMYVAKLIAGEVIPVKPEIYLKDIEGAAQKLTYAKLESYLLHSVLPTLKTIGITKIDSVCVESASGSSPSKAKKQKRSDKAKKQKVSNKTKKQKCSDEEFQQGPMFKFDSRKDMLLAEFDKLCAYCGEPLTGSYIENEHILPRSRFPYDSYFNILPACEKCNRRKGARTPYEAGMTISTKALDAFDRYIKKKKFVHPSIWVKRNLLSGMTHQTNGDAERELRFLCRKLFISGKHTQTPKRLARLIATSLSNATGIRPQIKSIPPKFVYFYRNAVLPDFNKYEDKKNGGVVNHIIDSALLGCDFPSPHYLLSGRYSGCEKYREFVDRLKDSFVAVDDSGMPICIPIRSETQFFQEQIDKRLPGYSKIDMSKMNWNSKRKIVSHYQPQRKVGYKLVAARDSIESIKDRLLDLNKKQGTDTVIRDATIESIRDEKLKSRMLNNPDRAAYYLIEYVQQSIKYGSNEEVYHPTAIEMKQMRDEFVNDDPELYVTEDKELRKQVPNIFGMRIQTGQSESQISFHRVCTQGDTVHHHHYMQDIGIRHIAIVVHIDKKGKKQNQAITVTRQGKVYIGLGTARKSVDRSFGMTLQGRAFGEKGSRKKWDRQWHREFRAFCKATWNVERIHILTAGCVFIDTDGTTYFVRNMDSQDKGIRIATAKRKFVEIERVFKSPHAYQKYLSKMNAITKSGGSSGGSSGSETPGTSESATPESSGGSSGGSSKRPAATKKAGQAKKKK", "assay": "cell_activity; HEK293T; PAM AGCC 3'", "protocol": "(§1) HEK293T cells were transfected with plasmids expressing the Nuclease S polypeptides and the gRNAs provided herein following the methods provided in Example 1 above. Gene editing efficiencies were determined by NGS following the methods also provided in Example 1. The NGS results were analyzed also following the methods provided in Example 1 above.\nEach Nuclease S variant was cloned as described in Example 6. HEK293T cells were further transfected with a plasmid encoding a Nuclease S variant and a plasmid encoding an RNA guide of Table 11, followed by NGS analysis, as described in Example 5. For each target, indel ratios, referring to the percentage of NGS reads comprising indels, were calculated for the reference Nuclease S (SEQ ID NO: 49) and for each Nuclease S variant. The indel ratios shown in Table 13 were calculated as the average of two bioreplicates, each of which contained two technical replicates."}, "[2]": {"molecular_target": "T2, Nuclease H (synthetic construct)", "T2 chain": "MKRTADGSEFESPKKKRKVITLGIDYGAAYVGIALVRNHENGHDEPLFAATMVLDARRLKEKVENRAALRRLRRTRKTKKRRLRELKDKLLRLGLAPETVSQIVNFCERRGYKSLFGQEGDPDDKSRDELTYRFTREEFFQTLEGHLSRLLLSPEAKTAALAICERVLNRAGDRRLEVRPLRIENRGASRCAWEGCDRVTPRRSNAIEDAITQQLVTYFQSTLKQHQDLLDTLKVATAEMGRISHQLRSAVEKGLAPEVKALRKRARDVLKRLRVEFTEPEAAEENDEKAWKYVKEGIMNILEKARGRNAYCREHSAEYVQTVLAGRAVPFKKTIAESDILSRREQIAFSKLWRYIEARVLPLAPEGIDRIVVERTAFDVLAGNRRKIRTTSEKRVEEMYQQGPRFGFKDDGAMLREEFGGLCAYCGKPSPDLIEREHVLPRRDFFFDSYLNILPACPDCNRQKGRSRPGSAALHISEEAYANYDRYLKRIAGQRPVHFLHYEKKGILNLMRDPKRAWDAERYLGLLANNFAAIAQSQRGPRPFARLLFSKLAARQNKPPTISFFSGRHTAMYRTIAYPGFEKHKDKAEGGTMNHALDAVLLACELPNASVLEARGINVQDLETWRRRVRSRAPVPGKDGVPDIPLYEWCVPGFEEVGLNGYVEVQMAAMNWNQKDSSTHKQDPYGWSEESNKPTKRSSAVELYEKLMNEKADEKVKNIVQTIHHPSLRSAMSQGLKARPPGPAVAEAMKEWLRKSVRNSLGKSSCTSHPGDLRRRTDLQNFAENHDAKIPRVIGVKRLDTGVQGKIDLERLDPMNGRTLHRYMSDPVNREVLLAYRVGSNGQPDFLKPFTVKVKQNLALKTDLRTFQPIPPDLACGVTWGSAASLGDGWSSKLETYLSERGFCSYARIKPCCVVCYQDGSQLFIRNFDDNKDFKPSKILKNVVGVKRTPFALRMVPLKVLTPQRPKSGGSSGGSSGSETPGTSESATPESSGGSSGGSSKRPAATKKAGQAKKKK", "assay": "cell_activity; HEK293T; PAM GAC 3'"}, "[3]": {"molecular_target": "T3, Nuclease H T783R (synthetic construct, T783R)", "T3 chain": "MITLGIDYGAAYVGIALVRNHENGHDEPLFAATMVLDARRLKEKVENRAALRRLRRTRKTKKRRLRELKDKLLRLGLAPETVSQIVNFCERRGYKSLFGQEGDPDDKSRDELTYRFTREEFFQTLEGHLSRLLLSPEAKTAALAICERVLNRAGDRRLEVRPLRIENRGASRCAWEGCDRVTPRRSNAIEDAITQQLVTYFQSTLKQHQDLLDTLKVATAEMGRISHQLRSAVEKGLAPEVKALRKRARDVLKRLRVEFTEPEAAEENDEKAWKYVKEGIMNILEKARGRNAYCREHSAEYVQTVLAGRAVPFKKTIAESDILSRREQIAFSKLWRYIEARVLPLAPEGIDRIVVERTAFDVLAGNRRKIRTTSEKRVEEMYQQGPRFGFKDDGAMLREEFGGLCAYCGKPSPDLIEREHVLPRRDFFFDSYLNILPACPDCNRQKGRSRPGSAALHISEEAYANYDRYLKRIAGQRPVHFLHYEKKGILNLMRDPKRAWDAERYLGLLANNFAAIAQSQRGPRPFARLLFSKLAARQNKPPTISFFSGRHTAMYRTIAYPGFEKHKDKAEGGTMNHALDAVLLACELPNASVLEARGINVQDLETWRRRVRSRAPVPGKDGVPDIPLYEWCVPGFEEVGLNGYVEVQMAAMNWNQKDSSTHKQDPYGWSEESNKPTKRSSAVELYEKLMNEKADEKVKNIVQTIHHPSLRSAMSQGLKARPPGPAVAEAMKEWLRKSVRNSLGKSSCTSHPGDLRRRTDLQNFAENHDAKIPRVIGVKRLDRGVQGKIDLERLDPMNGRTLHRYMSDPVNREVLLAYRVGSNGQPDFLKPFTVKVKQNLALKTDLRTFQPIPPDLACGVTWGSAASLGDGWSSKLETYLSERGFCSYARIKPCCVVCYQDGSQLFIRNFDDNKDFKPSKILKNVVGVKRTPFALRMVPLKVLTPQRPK", "assay": "cell_activity; HEK293T; PAM CAC", "protocol": "as §1, with “Nuclease H” for “Nuclease S”\nIndel ratios, referring to the percentage of NGS reads comprising indels, were calculated for the reference and for each variant. The indel ratios used for fold change calculations were the average of two technical replicates. To then calculate fold change in indel ratios, the indel ratio for each variant was divided by the indel ratio for the reference. […] Numbering is relative to the reference nuclease of SEQ ID NO: 64 (i.e., without an NLS)."}, "[4]": {"molecular_target": "T2, Nuclease H", "assay": "cell_activity; HEK293T; PAM CAC 3'"}}}
{"binder": "S EMX1-T4 RNA guide ; EMX1-T4 target (S) (ssRNA ; dsDNA) RNA: AUGACUCCAGGCCUCCCCAAGUUGUAUUCGGAUGGGAGUAAAAGGUUGAGUACACCUGGAAACAAAACGACAUAAAGGUGUUCUCCCAUCUGUGUACAAAGAGCAGAUAUAUGAGUUGAUAAGUAAUAUGUUGCACGUAUGGACUUUGACAGUCUGUACCUCUGCGUGAAAGACAUAUUGCGUUAUUCAUAUAUCUGUGAGUCUGUUCUAAAUUUAAAGGUUUAGGGAA DNA 1: ATGACTCCAGGCCTCCCCAA DNA 2: TTGGGGAGGCCTGGAGTCAT", "values": [{"measurement": "activity", "setting": "[1]", "value": 0.0265, "unit": "indel ratio"}]}
{"binder": "H VEGFA-T6 RNA guide ; VEGFA-T6 target (H) (ssRNA ; dsDNA) RNA: GACUCUUCAAAUCCUCCCUUGUUUCAAUCAACCUGAUCUCUCUGCUUGCGCUGCAGGCUUCAUAAGAUCAGUAGGUUGAAAAGAGCAUCCGUCCGACAUGCACUCCGGGAUGGGGCAGUCCCGGCUCUUGCGGUUCCCGAUGCAGUUAUGUGUCCGCGGAACACGGUGUCGGACACGUCGCAAGACAGGAUGUGAGCCCAUUAUCCACAUUAGGAUCAAUGUACGCAUGAGCAGUCCGCAAUGCCGGGGACGCU DNA 1: GACTCTTCAAATCCTCCCTT DNA 2: AAGGGAGGATTTGAAGAGTC", "values": [{"measurement": "activity", "setting": "[2]", "value": 0.0378, "unit": "indel ratio"}]}
{"binder": "S VEGFA-T4 RNA guide ; VEGFA-T4 target (S) (ssRNA ; dsDNA) RNA: CUCUACACAAAUCUCUCCAGGUUGUAUUCGGAUGGGAGUAAAAGGUUGAGUACACCUGGAAACAAAACGACAUAAAGGUGUUCUCCCAUCUGUGUACAAAGAGCAGAUAUAUGAGUUGAUAAGUAAUAUGUUGCACGUAUGGACUUUGACAGUCUGUACCUCUGCGUGAAAGACAUAUUGCGUUAUUCAUAUAUCUGUGAGUCUGUUCUAAAUUUAAAGGUUUAGGGAA DNA 1: CTCTACACAAATCTCTCCAG DNA 2: CTGGAGAGATTTGTGTAGAG", "values": [{"measurement": "activity", "setting": "[1]", "value": 0.0333, "unit": "indel ratio"}]}
{"binder": "H EMX1-T5 RNA guide ; EMX1-T5 target (H) (ssRNA ; dsDNA) RNA: GAGGCCUGGAGUCAUGGCCCGUUUCAAUCAACCUGAUCUCUCUGCUUGCGCUGCAGGCUUCAUAAGAUCAGUAGGUUGAAAAGAGCAUCCGUCCGACAUGCACUCCGGGAUGGGGCAGUCCCGGCUCUUGCGGUUCCCGAUGCAGUUAUGUGUCCGCGGAACACGGUGUCGGACACGUCGCAAGACAGGAUGUGAGCCCAUUAUCCACAUUAGGAUCAAUGUACGCAUGAGCAGUCCGCAAUGCCGGGGACGCU DNA 1: GAGGCCTGGAGTCATGGCCC DNA 2: GGGCCATGACTCCAGGCCTC", "values": [{"measurement": "fold change in indel ratio vs reference", "setting": "[3]", "value": 4.33, "unit": "fold indel vs reference"}, {"measurement": "activity", "setting": "[4]", "value": 0.032, "unit": "indel ratio"}]}
